Values belong to the molecule of their own block, whether it stands above or below them.
Tests used:
MMP-14 [1] = biological target: T1, MMP-14 (Homo sapiens, UniProt P50281); assay: Selection and phage ELISA screening of anti-MMP-14 Fabs; assay type: binding; conditions: Fab from FAB310 phage display library
Procedure, shortened: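 The FAB310 phage library was panned on biotinylated MMP-14, alone or complexed with bead-bound TIMP-2, at 500 nM and then 100 nM over three rounds. Phage was eluted with 2.5 μM TIMP-2, then 100 mM TEA. For ELISA, 95 clones per round were screened against 1 μg/ml biotinylated MMP-14 captured on streptavidin in TRIS/5 mM CaCl2, pH 7.5.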

MMP-14 [2] = biological target: T1, MMP-14; assay: IC50 for MMP-14 inhibition by Fabs and IgGs; assay type: biochemical; conditions: Fab
Procedure, shortened: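 Cleavage of the fluorogenic substrate Mca-Pro-Leu-Ala-Cys(Mob)-Trp-Ala-Arg-Dap(Dnp)-NH2 was measured without and with increasing Fab or IgG concentrations. IC50 is the binding-protein concentration that inhibits 50% of MMP-14 activity.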

MMP-16 [3] = biological target: T2, MMP-16 (Homo sapiens, UniProt P51512); assay: Cross-reactivity of anti-MMP-14 IgGs, enzymatic activity: MMP-16; assay type: biochemical; conditions: 1 μM anti-MMP-14 IgG
Protocol: The cross-reactivity of exemplary anti-MMP-14 IgGs and Fabs with other human MMPs and TACE (TNF-alpha converting enzyme) was examined. MMP and TACE enzymatic activity was monitored in the absence and presence of 1 μM anti-MMP-14 IgG antibody. Inhibition (Y) of activity ranged from approximately 50-80% of the reaction rate observed in the absence of antibody. “X” indicates no inhibition was observed. Cross-reactivity was not determined for MMP-17 because protein activity could not be detected.
For the studies summarized in Table 12, six anti-MMP-14 IgGs were selected for cross-reactivity testings: M0043-G02, M0040-A06, M0037-D01, M037-C09, M0038-F01, M0033-H07.

MMP-16 [4] = biological target: T2, MMP-16; assay: Cross-reactivity of Fabs and IgGs with MMP-16 (Example 8); assay type: biochemical; design: key to MMP-16 (cross-reactivity, class symbol): X: Does not inhibit MMP-16 at [I] = 100 nM level; conditions: 5 nM MMP16, 30 minutes at 30° C., 10 μM substrate
Protocol: For the studies summarized in Tables 13 and 14, 100 nM anti-MMP-14 Fab/IgG were incubated with 5 nM MMP16 for 30 minutes at 30° C., 10 μM of substrate was added, and the MMP-16 activity was measured.

MMP-16 [5] = biological target: T2, MMP-16; assay: Cross-reactivity of Fabs with MMP-16 (Example 9); assay type: biochemical; design: key: X: Do not inhibit MMP-16 or MMP-24 at [I] = 100 nM level; Y: partially inhibit at [I] = 100 nM level; conditions: Fab, 100 nM final inhibitor concentration, 5 nM MMP-16
Protocol: (§1) For the studies summarized in Table 15, 1 μM of anti-MMP-14 Fab/IgG (100 nM final inhibitor concentration) were incubated with 5 nM of MMP-16 or 5 nM of MMP-24 for 30 minutes at 30° C., 10 μM of substrate was added, and the MMP-16 activity was measured.

MMP-24 = MMP-24 (Homo sapiens, UniProt Q9Y5R2); assay: Cross-reactivity of Fabs with MMP-24 (Example 9); assay type: biochemical; design: key to MMP-24 (cross-reactivity, class symbol): X: Do not inhibit MMP-16 or MMP-24 at [I] = 100 nM level; Y: partially inhibit at [I] = 100 nM level; conditions: Fab, 100 nM final inhibitor concentration; 5 nM MMP-24
Protocol: as §1

Sequence of MMP-24 (Q9Y5R2 156-645): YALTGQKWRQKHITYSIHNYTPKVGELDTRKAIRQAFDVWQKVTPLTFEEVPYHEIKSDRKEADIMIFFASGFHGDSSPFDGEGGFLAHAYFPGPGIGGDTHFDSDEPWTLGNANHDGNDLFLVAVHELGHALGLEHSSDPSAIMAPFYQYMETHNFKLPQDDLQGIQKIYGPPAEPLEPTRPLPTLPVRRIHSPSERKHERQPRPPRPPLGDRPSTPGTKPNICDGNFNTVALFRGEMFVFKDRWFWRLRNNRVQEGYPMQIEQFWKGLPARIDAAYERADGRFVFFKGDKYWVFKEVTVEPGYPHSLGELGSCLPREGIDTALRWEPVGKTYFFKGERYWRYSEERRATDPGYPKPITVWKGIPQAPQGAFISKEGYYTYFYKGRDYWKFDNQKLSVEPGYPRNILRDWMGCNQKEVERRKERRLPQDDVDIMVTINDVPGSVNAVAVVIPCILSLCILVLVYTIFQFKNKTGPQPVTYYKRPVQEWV
T2 sequence (P51512 120-607): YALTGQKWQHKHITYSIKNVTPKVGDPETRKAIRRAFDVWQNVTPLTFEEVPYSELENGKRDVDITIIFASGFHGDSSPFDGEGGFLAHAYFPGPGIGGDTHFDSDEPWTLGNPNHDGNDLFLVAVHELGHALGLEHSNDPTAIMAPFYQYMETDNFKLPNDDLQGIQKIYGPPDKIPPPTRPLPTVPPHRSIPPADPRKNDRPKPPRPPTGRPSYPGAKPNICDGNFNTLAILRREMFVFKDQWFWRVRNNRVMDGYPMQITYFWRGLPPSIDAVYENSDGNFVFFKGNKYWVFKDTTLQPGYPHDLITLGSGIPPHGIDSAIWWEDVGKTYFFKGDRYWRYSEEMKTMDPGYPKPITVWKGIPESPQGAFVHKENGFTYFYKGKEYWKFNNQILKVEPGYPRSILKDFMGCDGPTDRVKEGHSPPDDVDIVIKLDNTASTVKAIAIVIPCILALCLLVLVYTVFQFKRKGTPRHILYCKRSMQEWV

bind to human MMP-14 (MMP-14 [1]): bind to human MMP-14
bind to and inhibit human MMP-14 (MMP-14 [2]): bind to and inhibit human MMP-14
MMP-16 inhibition (MMP-16 [4]; Fab 100 nM): Y 70% inhibition
MMP-16 inhibition (MMP-16 [4]; IgG 100 nM): Y 94% inhibition
MMP-16 (cross-reactivity, class symbol) (MMP-16 [5]): X
MMP-24 inhibition (MMP-24): Y 74% inhibition
B1: M0043-G02: human antibody (Fab, IgG) that binds and inhibits MMP-14; HC SEQ ID NO: 166, LC SEQ ID NO: 167 (antibody, V domains shown)
VH: EVQLLESGGGLVQPGGSLRLSCAASGFTFSWYPMFWVRQAPGKGLEWVSGIYSSGGPTDYADSVKGRFTISRDNSKNTLYLQMNSLRAEDTAVYYCAKDTLGRYYDFWSGYSYGMDVWGQGTTVTVSS
VL: QDIQMTQSPGTLSLSPGERATLSCRASQSVSSSYLAWYQQKPGQAPRLLIYGASSRATGIPDRFSGSGSGTDFTLTISRLEPEDFAVYYCQSGVTFGGGTKVEIK
modifications: Synthetically generated peptide
Cross reactivity: inhibition of MMP-16 activity (MMP-16 [3]): Y (Inhibition (Y) of activity ranged from approximately 50-80% of the reaction rate observed in the absence of antibody)

bind to human MMP-14 (MMP-14 [1]): bind to human MMP-14
bind to and inhibit human MMP-14 (MMP-14 [2]): bind to and inhibit human MMP-14
MMP-16 (cross-reactivity, class symbol) (MMP-16 [4]; Fab 100 nM): X
MMP-16 (cross-reactivity, class symbol) (MMP-16 [4]; IgG 100 nM): X
MMP-16 (cross-reactivity, class symbol) (MMP-16 [5]): X
MMP-24 inhibition (MMP-24): Y 65% inhibition
B2: M0040-A06: human antibody (Fab, IgG) that binds and inhibits MMP-14; HC SEQ ID NO: 162, LC SEQ ID NO: 163 (antibody, V domains shown)
VH: EVQLLESGGGLVQPGGSLRLSCAASGFTFSYYGMYWVRQAPGKGLEWVSSISSSGGYTDYADSVKGRFTISRDNSKNTLYLQMNSLRAEDTAVYYCARRIKYYDIEGEGAFDIWGQGTMVTVSS
VL: QDIVMTQTPPSLPVNPGEPASISCRSSQSLLHRNGYNYLDWYLQKPGQSPQLLIHLGSYRASGVPDRFSGSGSGTDFTLKISRVEAEDVGVYYCMQPLQTPFTFGPGTKVDIK
modifications: Synthetically generated peptide
Cross reactivity: inhibition of MMP-16 activity (MMP-16 [3]): Y (Inhibition (Y) of activity ranged from approximately 50-80% of the reaction rate observed in the absence of antibody)

bind to human MMP-14 (MMP-14 [1]): bind to human MMP-14
bind to and inhibit human MMP-14 (MMP-14 [2]): bind to and inhibit human MMP-14
MMP-16 (cross-reactivity, class symbol) (MMP-16 [4]; Fab 100 nM): X
MMP-16 (cross-reactivity, class symbol) (MMP-16 [4]; IgG 100 nM): X
MMP-16 (cross-reactivity, class symbol) (MMP-16 [5]): X
MMP-24 (cross-reactivity, class symbol) (MMP-24): X
B3: M0038-F01: human antibody (Fab, IgG) that binds and inhibits MMP-14; HC SEQ ID NO: 156, LC SEQ ID NO: 157 (antibody, V domains shown)
VH: EVQLLESGGGLVQPGGSLRLSCAASGFTFSLYSMNWVRQAPGKGLEWVSSIYSSGGSTLYADSVKGRFTISRDNSKNTLYLQMNSLRAEDTAVYYCARGRAFDIWGQGTMVTVSS
VL: QDIQMTQSPSSLSAFVGDKVTITCRASQSVGTYLNWYQQKAGKAPELLIYATSNLRSGVPSRFSGSGSGTDFTLTINTLQPEDFATYYCQQSYSIPRFTFGPGTKVDIK
modifications: Synthetically generated peptide
Cross reactivity: inhibition of MMP-16 activity (MMP-16 [3]): Y (Inhibition (Y) of activity ranged from approximately 50-80% of the reaction rate observed in the absence of antibody)

— patent US8106168B2, “Metalloproteinase binding proteins” (Dyax Corp., priority 2005, dated 2012)
